Experimental data taken from IntAct's records for PubMed 24097060.

B1: DNA topoisomerase 4 subunit A (Escherichia coli (strain K12)), P0AFI2 (parent)
chain: MSDMAERLALHEFTENAYLNYSMYVIMDRALPFIGDGLKPVQRRIVYAMSELGLNASAKFKKSARTVGDVLGKYHPHGDSACYEAMVLMAQPFSYRYPLVDGQGNWGAPDDPKSFAAMRYTESRLSKYSELLLSELGQGTADWVPNFDGTLQEPKMLPARLPNILLNGTTGIAVGMATDIPPHNLREVAQAAIALIDQPKTTLDQLLDIVQGPDYPTEAEIITSRAEIRKIYENGRGSVRMRAVWKKEDGAVVISALPHQVSGARVLEQIAAQMRNKKLPMVDDLRDESDHENPTRLVIVPRSNRVDMDQVMNHLFATTDLEKSYRINLNMIGLDGRPAVKNLLEILSEWLVFRRDTVRRRLNYRLEKVLKRLHILEGLLVAFLNIDEVIEIIRNEDEPKPALMSRFGLTETQAEAILELKLRHLAKLEEMKIRGEQSELEKERDQLQGILASERKMNNLLKKELQADAQAYGDDRRSPLQEREEAKAMSEHDMLPSEPVTIVLSQMGWVRSAKGHDIDAPGLNYKAGDSFKAAVKGKSNQPVVFVDSTGRSYAIDPITLPSARGQGEPLTGKLTLPPGATVDHMLMESDDQKLLMASDAGYGFVCTFNDLVARNRAGKALITLPENAHVMPPVVIEDASDMLLAITQAGRMLMFPVSDLPQLSKGKGNKIINIPSAEAARGEDGLAQLYVLPPQSTLTIHVGKRKIKLRPEELQKVTGERGRRGTLMRGLQRIDRVEIDSPRRASSGDSEE
partner: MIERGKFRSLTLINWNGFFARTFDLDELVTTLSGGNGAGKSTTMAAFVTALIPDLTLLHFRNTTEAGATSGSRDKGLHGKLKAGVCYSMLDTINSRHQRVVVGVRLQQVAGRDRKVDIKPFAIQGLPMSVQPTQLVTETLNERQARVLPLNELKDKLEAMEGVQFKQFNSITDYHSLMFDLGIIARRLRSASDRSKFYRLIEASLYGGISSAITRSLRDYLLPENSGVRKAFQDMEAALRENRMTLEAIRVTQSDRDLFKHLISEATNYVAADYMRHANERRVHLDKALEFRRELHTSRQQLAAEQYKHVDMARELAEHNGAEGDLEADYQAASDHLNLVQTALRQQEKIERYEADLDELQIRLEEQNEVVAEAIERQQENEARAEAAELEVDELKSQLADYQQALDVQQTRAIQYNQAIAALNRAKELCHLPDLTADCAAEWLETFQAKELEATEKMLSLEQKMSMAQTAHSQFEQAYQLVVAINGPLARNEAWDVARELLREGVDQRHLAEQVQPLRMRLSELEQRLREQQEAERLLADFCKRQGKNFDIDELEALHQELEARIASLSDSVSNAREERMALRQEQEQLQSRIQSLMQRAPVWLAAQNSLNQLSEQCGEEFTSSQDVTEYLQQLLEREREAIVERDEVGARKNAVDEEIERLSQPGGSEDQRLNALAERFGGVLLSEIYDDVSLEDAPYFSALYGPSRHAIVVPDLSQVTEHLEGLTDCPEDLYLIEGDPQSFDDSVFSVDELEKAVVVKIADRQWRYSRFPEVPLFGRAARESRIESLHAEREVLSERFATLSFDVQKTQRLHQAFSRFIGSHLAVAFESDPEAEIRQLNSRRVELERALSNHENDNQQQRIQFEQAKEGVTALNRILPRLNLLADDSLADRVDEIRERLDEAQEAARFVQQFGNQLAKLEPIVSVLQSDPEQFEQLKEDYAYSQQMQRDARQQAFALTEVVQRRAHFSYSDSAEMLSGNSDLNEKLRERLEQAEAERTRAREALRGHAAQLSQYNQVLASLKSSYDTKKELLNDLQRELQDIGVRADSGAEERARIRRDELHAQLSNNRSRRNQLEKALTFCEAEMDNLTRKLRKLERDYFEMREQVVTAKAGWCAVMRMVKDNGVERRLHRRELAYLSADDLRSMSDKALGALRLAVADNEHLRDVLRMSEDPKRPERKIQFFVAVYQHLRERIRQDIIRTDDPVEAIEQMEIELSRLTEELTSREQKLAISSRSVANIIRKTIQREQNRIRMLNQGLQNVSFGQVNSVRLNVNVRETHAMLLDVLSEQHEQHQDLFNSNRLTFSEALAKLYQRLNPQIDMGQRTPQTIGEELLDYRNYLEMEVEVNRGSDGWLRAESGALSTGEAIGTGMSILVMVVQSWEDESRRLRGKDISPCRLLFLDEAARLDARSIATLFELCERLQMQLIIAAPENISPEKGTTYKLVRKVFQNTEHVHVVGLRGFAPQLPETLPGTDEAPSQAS
B2: Chromosome partition protein MukB (Escherichia coli (strain K12)), P22523 (parent)
chain: B1 partner
partner: B1 chain

Variants of: B1
Details: with mukb_ecoli mukB

Row | Variant | effect of a mutation on the interaction
1 | R705D;R729D | disrupting interaction

Variants of: B2
Details: with parc_ecoli parC

Row | Variant | effect of a mutation on the interaction
2 | D692F | decreasing interaction

Variants of: B2
Details: with parc_ecoli parC
Remark: another data set of the same source

Row | Variant | effect of a mutation on the interaction
3 | D692F;D746R;E753R | disrupting interaction
